Experimental data as given in publication PMC4337721, “Noncanonical binding of BiP ATPase domain to Ire1 and Perk is dissociated by unfolded protein CH1 to initiate ER stress signaling” (eLife, 2015).
“And” between values parts separate entries of the source, which are not always exact repeats. Equal entries are not always repeated.

B1: Ire1 luminal domain, complete (region I–V, residues 24–440) (domain or fragment, human, UniProt O75460 24-440, looked up)
chain: STVTLPETLLFVSTLDGSLHAVSKRTGSIKWTLKEDPVLQVPTHVEEPAFLPDPNDGSLYTLGSKNNEGLTKLPFTIPELVQASPCRSSDGILYMGKKQDIWYVIDLLTGEKQQTLSSAFADSLCPSTSLLYLGRTEYTITMYDTKTRELRWNATYFDYAASLPEDDVDYKMSHFVSNGDGLVVTVDSESGDVLWIQNYASPVVAFYVWQREGLRKVMHINVAVETLRYLTFMSGEVGRITKWKYPFPKETEAKSKLTPTLYVGKYSTSLYASPSMVHEGVAVVPRGSTLPLLEGPQTDGVTIGDKGECVITPSTDVKFDPGLKSKNKLNYLRNYWLLIGHHETPLSASTKMLERFPNNLPKHRENVIPADSEKKSFEEVINLVDQTSENAPTTVSRDVEEKPAHAPARPEAPVDSM
notes: Ire1, human, luminal domain regions I-V, residues 24-440; also called Ire1 I–V; Ire1 LD; source: E. coli BL21 (DE3), purified (Co2+-NTA, anion exchange, SEC); not shown: His6, N-terminal, cleaved
B2: Ire1 luminal domain region II–IV (residues 32–390) (domain or fragment, human, UniProt O75460 32-390, looked up)
chain: LLFVSTLDGSLHAVSKRTGSIKWTLKEDPVLQVPTHVEEPAFLPDPNDGSLYTLGSKNNEGLTKLPFTIPELVQASPCRSSDGILYMGKKQDIWYVIDLLTGEKQQTLSSAFADSLCPSTSLLYLGRTEYTITMYDTKTRELRWNATYFDYAASLPEDDVDYKMSHFVSNGDGLVVTVDSESGDVLWIQNYASPVVAFYVWQREGLRKVMHINVAVETLRYLTFMSGEVGRITKWKYPFPKETEAKSKLTPTLYVGKYSTSLYASPSMVHEGVAVVPRGSTLPLLEGPQTDGVTIGDKGECVITPSTDVKFDPGLKSKNKLNYLRNYWLLIGHHETPLSASTKMLERFPNNLPKHRENV
notes: Ire1, human, luminal domain regions II-IV, residues 32-390; With cross linker it forms dimer and tetramer species; also called Ire1 II–IV; Ire1 LD for cross-link experiment; source: E. coli BL21 (DE3), purified (Co2+-NTA, anion exchange, SEC); not shown: His6, N-terminal, cleaved
B3: Ire1 luminal domain region I–IV (residues 24–390) (domain or fragment, human, UniProt O75460 24-390, looked up)
chain: STVTLPETLLFVSTLDGSLHAVSKRTGSIKWTLKEDPVLQVPTHVEEPAFLPDPNDGSLYTLGSKNNEGLTKLPFTIPELVQASPCRSSDGILYMGKKQDIWYVIDLLTGEKQQTLSSAFADSLCPSTSLLYLGRTEYTITMYDTKTRELRWNATYFDYAASLPEDDVDYKMSHFVSNGDGLVVTVDSESGDVLWIQNYASPVVAFYVWQREGLRKVMHINVAVETLRYLTFMSGEVGRITKWKYPFPKETEAKSKLTPTLYVGKYSTSLYASPSMVHEGVAVVPRGSTLPLLEGPQTDGVTIGDKGECVITPSTDVKFDPGLKSKNKLNYLRNYWLLIGHHETPLSASTKMLERFPNNLPKHRENV
notes: Ire1, human, luminal domain regions I-IV, residues 24-390; also called Ire1 I–IV; source: E. coli BL21 (DE3), purified (Co2+-NTA, anion exchange, SEC); not shown: His6, N-terminal, cleaved
B4: Perk luminal domain region I–IV (residues 54–403) (domain or fragment, human, UniProt Q9NZJ5 54-403, looked up)
chain: TSATRVPAAGAVAAAEVTVEDAEALPAAAGEQEPRGPEPDDETELRPRGRSLVIISTLDGRIAALDPENHGKKQWDLDVGSGSLVSSSLSKPEVFGNKMIIPSLDGALFQWDQDRESMETVPFTVESLLESSYKFGDDVVLVGGKSLTTYGLSAYSGKVRYICSALGCRQWDSDEMEQEEDILLLQRTQKTVRAVGPRSGNEKWNFSVGHFELRYIPDMETRAGFIESTFKPNENTEESKIISDVEEQEAAIMDIVIKVSVADWKVMAFSKKGGHLEWEYQFCTPIASAWLLKDGKVIPISLFDDTSYTSNDDVLEDEEDIVEAARGATENSVYLGMYRGQLYLQSSVRI
notes: Perk, human, luminal domain regions I-IV, residues 54-403; also called Perk I–IV; source: E. coli BL21 (DE3), purified (Co2+-NTA, anion exchange, SEC); not shown: His6, N-terminal, cleaved
B5: Perk luminal domain, complete (region I–V, residues 54–509) (domain or fragment, human, UniProt Q9NZJ5 54-509, looked up)
chain: TSATRVPAAGAVAAAEVTVEDAEALPAAAGEQEPRGPEPDDETELRPRGRSLVIISTLDGRIAALDPENHGKKQWDLDVGSGSLVSSSLSKPEVFGNKMIIPSLDGALFQWDQDRESMETVPFTVESLLESSYKFGDDVVLVGGKSLTTYGLSAYSGKVRYICSALGCRQWDSDEMEQEEDILLLQRTQKTVRAVGPRSGNEKWNFSVGHFELRYIPDMETRAGFIESTFKPNENTEESKIISDVEEQEAAIMDIVIKVSVADWKVMAFSKKGGHLEWEYQFCTPIASAWLLKDGKVIPISLFDDTSYTSNDDVLEDEEDIVEAARGATENSVYLGMYRGQLYLQSSVRISEKFPSSPKALESVTNENAIIPLPTIKWKPLIHSPSRTPVLVGSDEFDKCLSNDKFSHEEYSNGALSILQYPYDNGYYLPYYKRERNKRSTQITVRFLDNPHYNKN
notes: Perk, human, luminal domain regions I-V, residues 54-509; see recheck on the SEC MALS mass; also called Perk I–V; Perk LD; source: E. coli BL21 (DE3), purified (Co2+-NTA, anion exchange, SEC); not shown: His6, N-terminal, cleaved
B6: unfolded protein CH1 (immunoglobulin constant heavy chain domain) (domain or fragment)
chain: not shown
notes: immunoglobulin constant heavy chain domain CH1, intrinsically unfolded without CL; also called CH1 substrate; source: expressed as previously described (Marcinowski et al., 2011)
B7: BiP ATPase domain (residues 28–405), His6-tag removed (domain or fragment)
chain: not shown
notes: BiP, human, ATPase domain, residues 28-405; also called BiP's ATPase domain; source: E. coli BL21 (DE3), purified (Co2+-NTA, anion exchange, SEC); not shown: His6, N-terminal, cleaved
B8: His6-tagged BiP ATPase domain (residues 28–405) (domain or fragment)
chain: not shown
notes: BiP, human, ATPase domain, residues 28-405; also called His6-tagged BiP ATPase domain protein; source: E. coli BL21 (DE3), purified (Co2+-NTA, anion exchange, SEC); not shown: His6, N-terminal, kept

Experiments:
[1] = target: T1, ΔEspP, yeast Ire1-specific unfolded peptide mimic; assay: ITC; settings: both partners purified
T1 construct: also called unfolded protein peptide mimic; source: bought: AltaBiosciences

[2] = target: T2, full-length BiP (BiP FL, residues 28–654), His6-tag removed (human, UniProt P11021 28-654); assay: MST; Monolith NT.115; buffer B (50 mM HEPES pH 7.5, 75 mM NaCl, 10% glycerol, 1 mM TCEP), no nucleotide; one partner labelled (Red-NHS) at 50 nM, sixteen twofold dilutions of the unlabelled partner (which was labelled is not told); 25°C; three independent experiments averaged; settings: both partners purified
T2 construct: BiP (ER Hsp70 chaperone), human, residues 28-654; In MST one partner carried the Red-NHS label; also called ER Hsp70 chaperone; source: E. coli BL21 (DE3), purified (Co2+-NTA, anion exchange, SEC); not shown: His6, N-terminal, cleaved

SEC-MALS = target: the molecule itself; assay: SEC-MALS
[3] = target: B7; assay: MST; Monolith NT.115; buffer B (50 mM HEPES pH 7.5, 75 mM NaCl, 10% glycerol, 1 mM TCEP), no nucleotide; one partner labelled (Red-NHS) at 50 nM, sixteen twofold dilutions of the unlabelled partner (which was labelled is not told); 25°C; three independent experiments averaged; settings: both partners purified
[4] = target: the molecule itself; assay: cross-linking; EGS, 50-fold molar excess, 1 hr; proteins at 50 μM in 50 mM Hepes pH 8.0, 50 mM NaCl, 5% glycerol, 5 mM DTT; alone or in 1:1 molar mixture; SDS-PAGE and anti-His6 blot
[5] = target: T3, BiP substrate binding domain (residues 422–654), His6-tag removed (human, UniProt P11021 422-654); assay: MST; Monolith NT.115; buffer B (50 mM HEPES pH 7.5, 75 mM NaCl, 10% glycerol, 1 mM TCEP), no nucleotide; one partner labelled (Red-NHS) at 50 nM, sixteen twofold dilutions of the unlabelled partner (which was labelled is not told); 25°C; three independent experiments averaged; settings: both partners purified
T3 construct: also called BiP SBD; source: E. coli BL21 (DE3), purified (Co2+-NTA, anion exchange, SEC); not shown: His6, N-terminal, cleaved

[6] = target: B5; assay: as above; settings: both partners purified
[7] = target: B1; assay: as above; settings: both partners purified
[8] = target: B2; assay: cross-linking; EGS, 50-fold molar excess, 1 hr; proteins at 50 μM in 50 mM Hepes pH 8.0, 50 mM NaCl, 5% glycerol, 5 mM DTT; alone or in 1:1 molar mixture; SDS-PAGE and anti-His6 blot; settings: both partners purified

T2 sequence (P11021 28-654): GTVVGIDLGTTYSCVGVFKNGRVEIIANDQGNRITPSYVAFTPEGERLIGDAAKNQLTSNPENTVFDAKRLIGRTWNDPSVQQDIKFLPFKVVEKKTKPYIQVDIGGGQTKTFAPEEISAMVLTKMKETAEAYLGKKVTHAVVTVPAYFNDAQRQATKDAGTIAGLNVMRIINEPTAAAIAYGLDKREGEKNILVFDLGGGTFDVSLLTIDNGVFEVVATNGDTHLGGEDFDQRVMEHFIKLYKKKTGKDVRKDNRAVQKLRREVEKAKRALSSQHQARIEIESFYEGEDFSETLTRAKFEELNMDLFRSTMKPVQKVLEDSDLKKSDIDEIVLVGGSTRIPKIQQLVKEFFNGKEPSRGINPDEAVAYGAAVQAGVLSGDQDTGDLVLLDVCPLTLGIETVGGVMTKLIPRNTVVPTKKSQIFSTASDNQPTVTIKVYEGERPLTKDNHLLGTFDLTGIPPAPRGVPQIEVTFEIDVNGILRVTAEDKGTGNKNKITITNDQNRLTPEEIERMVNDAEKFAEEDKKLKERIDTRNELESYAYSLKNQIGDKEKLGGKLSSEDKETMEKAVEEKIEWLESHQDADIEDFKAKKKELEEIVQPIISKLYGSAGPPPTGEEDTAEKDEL
T3 sequence (P11021 422-654): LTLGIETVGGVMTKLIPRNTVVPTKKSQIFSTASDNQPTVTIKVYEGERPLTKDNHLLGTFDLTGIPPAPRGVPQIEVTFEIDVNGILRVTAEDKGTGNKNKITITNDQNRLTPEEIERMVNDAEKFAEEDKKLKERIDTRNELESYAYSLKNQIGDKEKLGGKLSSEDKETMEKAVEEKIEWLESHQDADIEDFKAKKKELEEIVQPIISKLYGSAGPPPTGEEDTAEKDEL

For B1, the Kd [1] was 6.4 µM, the Kd [2] was 1.33 µM and the “stoichiometry N” value (SEC-MALS) was 2.

With B2 the binding result [3] was “binds” and the “stoichiometry N” value [4] was 2 and 4.

B3: binds [3].

B4: binds [3].

In the case of B5, the Kd [1] is reported as 9.3 µM, the Kd [2] is reported as 1.92 µM and the “stoichiometry N” value (SEC-MALS) is reported as 2.

Binder B6 has a Kd [5] of 5.1 µM and a Kd [2] of 8.7 µM.

With B7 the Kd [6] was 2.05 µM and the Kd [7] was 1.97 µM.

B8 was tested, and the “stoichiometry N” value [8] was 1 1:1 and 2 2:1 (which of the two stands twice is not said).
